Measured values published in paper PMC4368477.

Molecular target: HA head of H1N1 A/Solomon Islands/3/2006 (Influenza A virus, A/Solomon Islands/3/2006 (H1N1))
Experiment: BLI

Substance	Kd [µM]	koff [s⁻¹]	kon [M⁻¹ s⁻¹]
CH65 Fab with light-chain reversion R29S	1.21	–	–
CH67 Fab with light-chain reversion R29S	0.37	0.019	52000
CH67 Fab with light-chain reversions D33H and R31S	1.5	0.067	–
